Measurements published in article PMC4596477, “Interaction of Myosin Phosphatase Target Subunit (MYPT1) with Myosin Phosphatase-RhoA Interacting Protein (MRIP): A Role of Glutamic Acids in the Interaction” (PLoS ONE, 2015).

B1: LR, leucine repeat region of MYPT1 (residues 991–1030) (peptide, UniProt O14974 991-1030, looked up)
chain: ERRISEMEEELKMLPDLKADNQRLKDENGALIRVISKLSK
notes: no result of its own is told for it; also called WT-LR; source: E. coli BL21 (DE3), purified (chitin beads, C8 reversed-phase HPLC)
B2: CCLR, MYPT1 peptide (residues 924–1030) containing a putative coiled coil domain (CC) and the leucine repeat region (LR) (domain or fragment, UniProt O14974 924-1030, looked up)
chain: LEKDDSTDFKKLYEQILAENEKLKAQLHDTNMELTDLKLQLEKATQRQERFADRSLLEMEKRERRALERRISEMEEELKMLPDLKADNQRLKDENGALIRVISKLSK
notes: myosin phosphatase target subunit (MYPT1); also called C-terminal region of MYPT1; source: E. coli BL21 (DE3), purified (chitin beads, C8 reversed-phase HPLC)

What was measured:
[1] = biological target: T1, MRIP^724-878 (myosin phosphatase-RhoA interacting protein, residues 724–878; CC2-CC4) (UniProt Q6WCQ1 724-878); assay: SPR; Biacore 3000, 25°C; MRIP^724-878 immobilised (1800 RU) by amine coupling on CM5, analytes CCLR (167–1 μM), CC (318–10 μM), LR (569–5 μM); reference surface G-actin; 50 mM potassium phosphate pH 7.4, 100 mM KCl; steady-state affinity fit; settings: both partners purified
T1 construct: Tight homodimer in solution by AUC; the forward primer puts an NdeI ATG before the codons GAGCGAGGGTTTGCAGCAATG; source: E. coli BL21 (DE3), purified (chitin beads, C8 reversed-phase HPLC)
T1 sequence (looked up): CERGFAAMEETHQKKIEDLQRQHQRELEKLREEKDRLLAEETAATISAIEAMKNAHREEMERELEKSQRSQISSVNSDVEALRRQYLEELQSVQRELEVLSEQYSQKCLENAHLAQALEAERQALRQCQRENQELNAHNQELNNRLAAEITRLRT

[2] = biological target: T1, MRIP^724-878 (myosin phosphatase-RhoA …); assay: SPR; Biacore 3000, 25°C; LR immobilised (244.8 RU) by amine coupling on CM5, analyte MRIP^724-878 (85.6–0.7 μM); reference surface a nebulin-derived peptide; 50 mM potassium phosphate pH 7.4, 100 mM KCl; steady-state affinity fit; settings: both partners purified
[3] = ref [14]; cited from earlier work
Protocol: The concentration ranges of the MRIP peptides in the mixtures overlap with those of the MRIP peptides by themselves (Fig 2). Thus, the greater s* values of the MRIP/MYPT1 mixtures than those of the individual MRIP peptides indicate that MRIP^545-878 monomer, MRIP^724-878 dimer, and the mixture of monomer and dimer of MRIP^724-837 bind to CCLR. […] To obtain the binding stoichiometry, AUC was performed using MRIP^724-878/CCLR mixtures at different ratios of the two peptides. MRIP^724-878 was chosen because the AUC stu ... || To obtain the binding stoichiometry, a series of sedimentation equilibrium experiments was performed. MRIP^724-878 was chosen due to its being a single species. Owing to the absence of aromatic residues, LR was employed. AUC was conducted using MRIP^724-878 alone, LR alone, the 1:1 mixture of MRIP^724-878/LR, and the 1:3 mixture of MRIP^724-878/LR. Sedimentation data were collected both at 280 nm to detect only MRIP^724-878 and at 220 nm to detect both.

MRIP^724-878 = biological target: T2, MRIP^724-878 (Homo sapiens, UniProt Q6WCQ1); assay: SPR, MYPT1 peptides as analytes over immobilized MRIP^724-878; type: binding; settings: 25°C, pH 7.4, CCLR 167–1 μM, CC 318–10 μM, LR 569–5 μM
T2 construct: MRIP^724-878 (residues 724–878; CC2-CC4); made in house; host or cells: Escherichia coli BL21 (DE3)
T2 sequence (Q6WCQ1 725-879): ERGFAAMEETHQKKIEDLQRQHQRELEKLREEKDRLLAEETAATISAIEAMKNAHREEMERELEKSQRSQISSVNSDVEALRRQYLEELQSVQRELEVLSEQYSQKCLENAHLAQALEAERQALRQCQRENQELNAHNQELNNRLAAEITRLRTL
Protocol: To corroborate the results from AUC studies, SPR was employed. […] Equilibrium K d values were obtained by nonlinear curve fitting of reference-corrected curves using the steady-state affinity fitting model in BIAevaluation version 4–1.
Analytes CCLR, CC, LR: Interactions between analytes, CCLR (167–1 μM), CC (318–10 μM), and LR (569–5 μM) with immobilized ligand, MRIP^724-878 (1800 RU) after correction for nonspecific binding using G-actin (2230 RU). Shown is a representative out of 9 experiments for CCLR and 8 for LR in each, duplicates or triplicates. Insets show fittings of steady-state affinity. Ligand LR: Interaction of analyte, MRIP^724-878 (85.6–0.7 μM) with immobilized ligand, LR (244.8 RU) after correction for nonspecific binding using a nebulin-derived peptide (600 RU). Shown is a representative out of 6 experiments.
Binding analyses of SPR were conducted on a Biacore 3000 (GE Healthcare) at 25°C. Sensor chips and reagents for immobilization (1-ethyl-3-(3-dimethylaminopropyl) carbodiimide, N-hydroxyl-succinimide, and ethanolamine) were purchased from GE Healthcare. Peptides were immobilized onto a CM5 sensor chip at 232–5841 resonance units (RU) using amine coupling. Binding studies were done using two-fold serial dilutions of the peptides in 50 mM potassium phosphate buffer (pH 7.4) containing 100 mM KCl. […]

Molecule	Kd [1]	Kd [2]	self-association [3]	complex formation with immobilized MRIP^724-878 (MRIP^724-878)
B1	195 µM	40 µM		
B2	14 µM		reversible self-association	formed complexes
